Experimental data: PMC10696123 (iScience, 2023)
Numbering of substitutions follows the chain as printed. In names and notes the source's numbering stands.

Experiments:
FleR 1-473 [1] = molecular target: FleR 1-473 (UniProt Q9I4N3); assay: small-angle X-ray scattering; conditions: reference: non-phosphorylated FleR D53A; sites D53
FleR 1-473 [2] = molecular target: FleR 1-473 (UniProt Q9I4N3); assay: dynamic light scattering; conditions: reference: wild type FleRFL, acetyl phosphate treated; sites D53
cross-linking = molecular target: the molecule itself; assay: cross-linking
SAXS = molecular target: the molecule itself; assay: SAXS

Molecule: FleR 1-473 (from UniProt Q9I4N3) acetyl phosphate-phosphorylated FleR S150F
- other: SAXS molecular mass (Bayesian inference) (FleR 1-473 [1]): stronger; reference 113650

Molecule: FleR 1-473 (from UniProt Q9I4N3) FleR D53A, acetyl phosphate treated
- other: hydrodynamic diameter (FleR 1-473 [2]): weaker; reference 23.17 ± 0.58

B1: DNA-binding domain of FleR (FleRDBD, residues 412-473) (domain or fragment, Pseudomonas aeruginosa (PAO1 strain), UniProt Q9I4N3 412-473, looked up)
chain: SGALGDDLRRREFQVIIDTLRTERGRRKEAAERLGISPRTLRYKLAQMRDAGMDVEAYLYAI
- stoichiometry N (cross-linking): 2

B2: FleR D53A, non-phosphorylated, full length (natural protein, Pseudomonas aeruginosa (PAO1 strain), UniProt Q9I4N3 1-473, looked up)
chain: MAAKVLLVEDDRALREALSDTLLLGGHEFVAVDSAEAALPVLAREAFSLVISAVNMPGMDGHQLLGLIRTRYPHLPVLLMTAYGAVDRAVEAMRQGAADYLVKPFEARALLDLVARHALGQLPGSEEDGPVALEPASRQLLELAARVARSDSTVLISGESGTGKEVLANYIHQQSPRAGKPFIAINCAAIPDNMLEATLFGHEKGSFTGAIAAQPGKFELADGGTILLDEISEMPLGLQAKLLRVLQEREVERVGARKPINLDIRVLATTNRDLAAEVAAGRFREDLYYRLSVFPLAWRPLRERPADILPLAERLLRKHSRKMNLGAVALGPEAAQCLVRHAWPGNVRELDNAIQRALILQQGGLIQPADLCLTAPIGMPLAAPVPVPMPAMPPATPPSVEIPSPAAGQDASGALGDDLRRREFQVIIDTLRTERGRRKEAAERLGISPRTLRYKLAQMRDAGMDVEAYLYAI
- stoichiometry N (SAXS): 2

B3: FleR S150F, full length, phosphorylated with acetyl phosphate (natural protein, Pseudomonas aeruginosa (PAO1 strain), UniProt Q9I4N3 1-473, looked up)
chain: B2 chain with A53D, S150F
modifications: phosphorylated by acetyl phosphate (site D53)
- stoichiometry N (SAXS): 7
